Test results reported in patent US20040253247A1 (Genentech, published 2004).
Where no end group is shown, it is not given here.

How the values were obtained:
Experiment in all cases: phage ELISA
[1] = biological target: rabbit albumin (rabbit, UniProt P49065 25-608)
Experimental: (§1) Phage ELISA—Phage clones (˜10¹¹ phage) were added to plates coated with rat, rabbit or human albumin. The microtiter plate was washed with wash buffer and bound phage were detected with HRP/Anti-M13 Conjugate. The amount of HRP bound was measured using ABTS/H₂O₂ substrate and monitoring the change at 405 nm.

[2] = biological target: rat albumin (rat, UniProt P02770 25-608)
Chain of rat albumin (P02770 25-608 limits assumed): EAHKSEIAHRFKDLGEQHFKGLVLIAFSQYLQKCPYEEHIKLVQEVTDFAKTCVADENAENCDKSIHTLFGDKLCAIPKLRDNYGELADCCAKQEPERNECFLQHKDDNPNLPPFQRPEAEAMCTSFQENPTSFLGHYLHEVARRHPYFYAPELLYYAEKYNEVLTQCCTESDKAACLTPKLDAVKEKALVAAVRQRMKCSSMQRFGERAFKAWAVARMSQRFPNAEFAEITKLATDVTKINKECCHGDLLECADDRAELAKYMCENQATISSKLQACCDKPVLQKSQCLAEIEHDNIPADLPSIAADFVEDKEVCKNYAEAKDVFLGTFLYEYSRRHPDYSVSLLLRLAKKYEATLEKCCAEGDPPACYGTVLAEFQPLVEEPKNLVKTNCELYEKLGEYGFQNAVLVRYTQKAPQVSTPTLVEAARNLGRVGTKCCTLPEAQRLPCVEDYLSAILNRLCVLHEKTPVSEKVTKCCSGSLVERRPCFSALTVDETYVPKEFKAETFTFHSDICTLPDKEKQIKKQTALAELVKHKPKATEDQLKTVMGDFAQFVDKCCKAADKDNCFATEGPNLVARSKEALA
Experimental: as §1

[3] = biological target: human albumin (human, UniProt P02768 25-609)
Experimental: as §1

Chain of rabbit albumin (P49065 25-608 limits assumed): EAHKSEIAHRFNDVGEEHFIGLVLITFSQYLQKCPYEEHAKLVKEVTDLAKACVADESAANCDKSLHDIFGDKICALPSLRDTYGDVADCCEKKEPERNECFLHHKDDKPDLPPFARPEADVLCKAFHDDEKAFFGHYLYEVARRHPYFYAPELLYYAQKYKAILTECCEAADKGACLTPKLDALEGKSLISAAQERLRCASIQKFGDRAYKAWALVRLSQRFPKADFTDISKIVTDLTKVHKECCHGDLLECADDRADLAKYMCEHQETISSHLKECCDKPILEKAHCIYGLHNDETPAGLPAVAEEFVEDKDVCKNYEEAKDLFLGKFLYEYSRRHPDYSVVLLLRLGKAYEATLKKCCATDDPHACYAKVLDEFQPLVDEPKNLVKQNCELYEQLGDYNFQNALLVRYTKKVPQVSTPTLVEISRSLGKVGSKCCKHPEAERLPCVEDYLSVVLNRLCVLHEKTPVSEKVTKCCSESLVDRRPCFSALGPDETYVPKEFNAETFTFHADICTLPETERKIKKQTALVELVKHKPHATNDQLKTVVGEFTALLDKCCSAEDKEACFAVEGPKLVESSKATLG

Binder	binding result [1]	binding result [2]	binding result [3]
ASEICYFPGICWMVE (phage clone, Library HBC) [HBC-H12]	no binding	no binding	
TTEMCYFPGICWKTE (phage clone, Library HBC) [HBC-H14]	no binding	no binding	
QGDFWDICLPRWGCLSGEGY (phage clone, Library RB) [RB-B10]			no binding
NDEICYFPGVCWKSG (phage clone, Library HBC) [HBC-H11]	no binding	no binding	
GGEICYFPGICRVLP (phage clone, Library HBC) [HBC-H4]	no binding	no binding	
GVRTFCQDWPAHNSCKLLRG (phage clone, Library HA) [HA-H73]	no binding	no binding	
SYAPCYFPGICWMGN (phage clone, Library HBC) [HBC-H8]	no binding	no binding	
KTEICYFPGICWMSG (phage clone, Library HBC) [HBC-H15]	no binding	no binding	
RMPASLPCYWETICYESSEQ (phage clone, Library HB) [HB-H16]	no binding	no binding	
REPASLVCYFEDICFVRAEA (phage clone, Library HB) [HB-H3]	no binding	no binding	
VRDMCYFPGICWKSE (phage clone, Library HBC) [HBC-H19]	no binding	no binding	
ETCYFPGICWL (phage clone, Library HC) [HC-H12]	no binding	no binding	
GTEVCYFPGICWGGG (phage clone, Library HBC) [HBC-H3]	no binding	no binding	
QTELCYFPGICWNES (phage clone, Library HBC) [HBC-H13]	no binding	no binding	
LVPERIVCYFESICYERSEL (phage clone, Library HB) [HB-H4]	no binding	no binding	
RDTVCYFPGICWMAS (phage clone, Library HBC) [HBC-H18]	no binding	no binding	
SGAICYVPGICWTHA [HB-H7]	no binding	no binding	
EHDMCYFPGICWIAD (phage clone, Library HBC) [HBC-H6]	no binding	no binding	
KLCYFPGICWS (phage clone, Library HC) [HC-H2]	no binding	no binding	
GRSFCMDWPAHKSCTPLML (phage clone, Library HA) [HA-H83]	no binding	no binding	
RTAESLVCYWPGICFAQSER (phage clone, Library HB) [HB-H18]	no binding	no binding	
MEPSRSVCYAEGICFDRGEQ (phage clone, Library HB) [HB-H8]	no binding	no binding	
DMCYFPGICWL (phage clone, Library HC) [HC-H13]	no binding	no binding	
RAPERWVCYWEGICFDRYEQ (phage clone, Library HB) [HB-H1]	no binding	no binding	
QRHMMDFCLPKWGCLWGDGY (phage clone, Library RB) [RB-R4]			no binding
VQEVCYFPGICWMQE (phage clone, Library HBC) [HBC-H10]	no binding	no binding	
ELCYFPGICWM (phage clone, Library HC) [HC-H20]	no binding	no binding	

Binder	binding result [1]	binding result [2]	binding result [3]
EVCYFPGICWF (phage clone, Library HC) [HC-H11]	no binding	no binding	
EMCYFPGICWT (phage clone, Library HC) [HC-H9]	no binding	no binding	
EVCYFPGICWE (phage clone, Library HC) [HC-H16]	no binding	no binding	
ALCYFPGICWM (phage clone, Library HC) [HC-H14]	no binding	no binding	
ELCYFPGICWT [HB-H13]	no binding	no binding	
EICYFPGICWI [HB-H12]	no binding	no binding	
DLCYFPGICWM (phage clone, Library HC) [HC-H3]	no binding	no binding	
ELCYFPGICWP (phage clone, Library HC) [HC-H15]	no binding	no binding	
KVCYFPGICWM (not fully specified (bridges); cysteine pairing not given here, phage clone, Library HC) [HC-H5]	no binding	no binding	
EMCYFPGICWS (phage clone, Library HC) [HC-H7]	no binding	no binding	
DVCYFPGICWM (phage clone, Library HC) [HC-H8]	no binding	no binding	
KTCYFPGICWM (phage clone, Library HC) [HC-H10]	no binding	no binding	
EVCYFPGICWM (phage clone, Library HC) [HC-H19]	no binding	no binding	
EICYFPGICWM (phage clone, Library HC) [HC-H17]	no binding	no binding	
HAEICYFPGICWTER (phage clone, Library HBC) [HBC-H17]	no binding	no binding	
SREVCYYPGICWNGA (phage clone, Library HBC) [HBC-H2]	no binding	no binding	
QTRSFCADWPRHESCKPLRG (phage clone, Library HA) [HA-H76]	no binding	no binding	
IVEMCYYPGICWISP [HB-H10]	no binding	no binding	
DMCYFPGICFN (phage clone, Library HC) [HC-H18]	no binding	no binding	
DICYIPGICWM (phage clone, Library HC) [HC-H6]	no binding	no binding	
RWQTEDVCLPKWGCLFGDGV (phage clone, Library RB) [RB-B1]			no binding
GMCYFPGICWA (phage clone, Library HC) [HC-H4]	no binding	no binding	
ERQMVDFCLPKWGCLWGDGF (phage clone, Library RB) [RB-R11]			no binding
RGPDVCYWPSICFERSMP (not fully specified (bridges); cysteine pairing not given here, phage clone, Library HB) [HB-H6]	no binding	no binding	
LAEMCYFPGICWMSA (phage clone, Library HBC) [HBC-H7]	no binding	no binding	
QRPIMDFCLPKWGCLWEDGF (phage clone, Library RB) [RB-R7]			no binding
